According to patent US20110015136A1:

Molecular target: human membrane attack complex (MAC), C5b-9 complex (human) (UniProt P01031)
Assay: cell-based or functional assay

complement mediated cell lysis (PI uptake, FACS; hepa-1c1c7 cells, 1000 vp/cell AdCAGCD59, 1% NHS): 12.3%
fold reduction of complement mediated cell lysis: 8 fold
inhibition of cell lysis at 250 vp/cell of AdCAGCD59: > 50%
inhibition of cell lysis at 500 vp/cell of AdCAGCD59: > 70%
reduction in MAC immunofluorescence intensity on corneal endothelium: 86%
reduction in MAC immunofluorescence on eyecups at 7.5 min NHS treatment: 68%
reduction in MAC immunofluorescence on eyecups at 15 min NHS treatment: 56%
reduction in mean MAC immunofluorescence intensity on RPE of eyecup tissues: 55%
B1: human CD59, glycosylphosphatidylinositol (GPI)-anchored membrane protein (protein, UniProt P13987 26-102, looked up)
chain: LQCYNCPNPTADCKTAVNCSSDFDACLITKAGLQVYNKCWKFEHCNFNDVTTRLRENELTYYCCKKDLCNFNEQLEN
modifications: GPI anchor at Asparagine 77 (mature numbering)
